Data: patent US10618964B2, “Nanobody against IL-6R” (Ablynx N.V., dated 2020)

T1: native soluble IL-6R in human plasma (human), P08887
T1 chain: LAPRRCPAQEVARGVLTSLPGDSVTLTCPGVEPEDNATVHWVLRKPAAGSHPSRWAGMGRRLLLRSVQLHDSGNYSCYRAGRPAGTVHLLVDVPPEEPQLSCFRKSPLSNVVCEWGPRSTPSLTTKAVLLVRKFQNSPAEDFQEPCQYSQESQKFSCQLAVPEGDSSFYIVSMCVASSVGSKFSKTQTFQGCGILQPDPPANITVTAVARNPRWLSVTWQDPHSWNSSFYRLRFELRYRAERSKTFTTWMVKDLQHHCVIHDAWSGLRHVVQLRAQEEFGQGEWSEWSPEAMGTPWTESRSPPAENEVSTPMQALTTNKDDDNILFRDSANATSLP


Legend:
[1] = biological target: T2, soluble IL-6R in cynomolgous plasma (cynomolgus monkey, UniProt A0A2K5WN54); test: ELISA 2, periplasmic extract; competitor IL-6; cyno plasma
[2] = biological target: T1, native soluble IL-6R in human plasma …; test: ELISA 1, periplasmic extract; competitor IL-6; human plasma; settings: remark: other sources report otherwise
[3] = biological target: T1, native soluble IL-6R in human plasma …; test: ELISA 3, periplasmic extract; competitor BN-12; human plasma; settings: remark: other sources report otherwise
[4] = biological target: human IL-6R on CHO-K1 cells (clone HuIL6R 4D6) (human, UniProt P08887); test: FMAT competition; competitor Reference IgG-A647; CHO cells with human IL-6R
Protocol: Eleven inhibitory Nanobodies were tested in competition with labelled Reference IgG for binding to CHO cells expressing hIL-6R or cynoIL-6R.

IL-6R on TF-1 cells = IL-6R on TF-1 cells (Homo sapiens (Human), UniProt P08887); test: cell-based or functional assay
[5] = biological target: T3, native soluble IL-6R in human plasma (human, UniProt P08887); test: ELISA 1, periplasmic extract; competitor IL-6; human plasma
[6] = biological target: T3, native soluble IL-6R in human plasma; test: plasma potency ELISA, purified Nanobody; competitor IL-6; human plasma
Protocol: (§1) In this ELISA, plasma was used as a source of native soluble IL-6R. By this assay, we aimed to confirm the alphascreen results and to get a view on the cross-reactivity of the clones towards cynomolgous IL-6R. Human plasma (ELISA 1 and ELISA 3) or cynomolgous plasma (ELISA 2) were pre-incubated with a dilution of the periplasmic extract of the clones together with human IL-6 (50 ng/mL). Subsequently, plasma soluble IL-6R was captured on a B-N12 coated plate and bound IL-6 was detected using anti-IL-6 antibody BAF206 and streptavidin-HRP (ELISA 1 and ELISA 2). The ELISA signal dropped when the Nanobody clone could compete with IL-6 for binding to soluble IL-6R. ELISA 3 was a parallel ELISA in which the detection antibody was replaced by anti-IL-6R antibody BAF227 to exclude false positive competitors, which actually compete with B-N12 (e.g. family 2). Depicted in Table C-5 is the ratio of the OD450 value of the test sample versus the blank OD450 (mock sample). Clones were ordered based on ELISA 1 data.
(§2) A potency ELISA was done with the purified Nanobodies as described in Example 9. Here, different dilutions of each purified Nanobody were incubated with human (ELISA1) and cynomolgous plasma (ELISA2). IC50 values are depicted in Table C-9.

[7] = biological target: T3, native soluble IL-6R in human plasma; test: ELISA 3, periplasmic extract; competitor BN-12; human plasma
[8] = biological target: T2, soluble IL-6R in cynomolgous plasma; test: plasma potency ELISA, purified Nanobody; competitor IL-6; cyno plasma
Protocol: as §1, §2

[9] = biological target: cyno IL-6R on CHO-K1 cells (clone CyIL6R 405) (cynomolgus monkey; human-rhesus); test: FMAT competition; competitor Reference IgG-A647; CHO cells with cyno IL-6R

| Binder | OD450 ratio sample/blank [1] | OD450 ratio sample/blank [2] | OD450 ratio sample/blank [3] | IC50 [4] | IC50, IL-6-dependent proliferation of TF-1 cells (3H-thymidine) (IL-6R on TF-1 cells) | OD450 ratio sample/blank [5] | IC50 [6] | OD450 ratio sample/blank [7] | IC50 [8] | IC50 [9] |
| --- | --- | --- | --- | --- | --- | --- | --- | --- | --- | --- |
| IL6RPMP103F2 (VHH) VHH: EVQLVESGGGLVQAGGSLRLSCVASGHTSDTYIMAWFRQAPGKEREFVASILWDGSITYYADSVKDRFTISRDISRKTLYLQMNSLRPEDTATYTCARGIYFSRRYVDPGIYGTWGQGTQVTVSS | 1.09 | 1.95 | 0.993 | – | – | – | – | – | – | – |
| IL6RPMP103H9 (VHH) VHH: EVQLVESGGGLVQPGGSLRLSCAASKSIFDINAMYWHRQAPGKQRESVASITSGGMRNYADSVKDRFTISKDNAKNTVYLQMNGLKPDDTAVYYCGLGRYEGGVWRDYWGQGTQVTVSS | 0.263 | – | – | > 50 nM | 1470 nM | 1.59 | 37.9 nM | 0.99 | 14.8 nM | – |
| IL6RPMP103C4 (VHH) VHH: EVQLVESGGGLVEAGGSLRLSCAAAGRTLSSYSMAWFRQAPGKEREFVAIIRGNPSRTYHSDSVKGRFTASRDNAKNTVYLQMNRLEPEDTAVYYCAADPPPFASDYSAPQSYDYWGQGTQVTVSS | 0.0819 | – | – | 37 nM | 15.6 nM | 0.959 | 1.73 nM | 1 | 2.7 nM | 30 nM |
| IL6RPMP103C7 (VHH) VHH: EVQLVESGGGLVQAGGSLSLSCATSGRTISDDTMAWFRQAPGKEREFVATITFSGARTHYSDSVRDRFTISRDNAKNTVYLQMDSLKSEDTAVYYCAASTKYYSSTYNYIHPAFYDIWGQGTQVTVSS | 0.175 | – | – | > 100 nM | 61.3 nM | 0.413 | 6.9 nM | 0.948 | 13.7 nM | 75 nM |
| IL6RPMP103C3 (VHH) VHH: EVQLVESGGGLVQPGGSMRLSCAATGAIFSISTMGWYRQAPGAQREFVAGVGLDGTPNYADSVKGRFTISRDNTKNTVSLQMENLKPEDTGVYYCNIDEGMDYDGNFYDRWGQGTQVTVSS | 1.1 | 2.02 | 1.01 | – | – | – | – | – | – | – |

Next, values leading:

| OD450 ratio sample/blank [1] | OD450 ratio sample/blank [2] | OD450 ratio sample/blank [3] | IC50 [4] | IC50, IL-6-dependent proliferation of TF-1 cells (3H-thymidine) (IL-6R on TF-1 cells) | OD450 ratio sample/blank [5] | IC50 [6] | OD450 ratio sample/blank [7] | IC50 [8] | IC50 [9] | Binder |
| --- | --- | --- | --- | --- | --- | --- | --- | --- | --- | --- |
| 0.961 | 0.731 | 0.989 | – | – | – | – | – | – | – | IL6RPMP108E9 (VHH) VHH: EVQLVESGGGLVQAGGSLRLSCAFSRRSFGNFPMGWFRQRPGEEREYVAVISWNNNYIHYRDSVKGRFTASRDTSENRMYLQMNGLKPEDTAVYYCAARTKDNTLFTPAEEYDYWGQGTQVTVSS |
| 0.031 | – | – | 63 nM | 5.59 nM | 0.138 | 0.47 nM | 0.988 | 0.55 nM | 27 nM | IL6RPMP120A5 (VHH) VHH: EVQLVESGGGLVQAGGSLSLSCATSGRTISDDTMAWFRQAPGKEREFVAIITFNGARTHYSDSVRDRFTISRDNAKNTVYLQMNSLKSEDTAVYYCAASTKYYSSTYNYIHPAFYDIWGQGTQVTVSS |
| 0.0289 | – | – | – | 10.2 nM | 0.236 | 1.12 nM | 0.993 | 0.66 nM | – | IL6RPMP120G6 (VHH) VHH: EVQLVESGGDLVQTGGSLRLSCAASGITVSDRAMGWYRQAPGKQREMVAGVSRGGMTSYADSVKGRLTISRDNAKNSVYLQMNSLNPEDTAVYYCSAYYRYGSSVPQYWGQGTQVTVSS |
| 0.0402 | – | – | > 100 nM | 6.2 nM | 0.21 | 0.58 nM | 0.995 | 0.62 nM | 13 nM | IL6RPMP105E1 (VHH) VHH: EVQLVESGGGLVQAGGSLRLSCAASGSIFSIKAMGWYRQAPGKQRELVARITSGGSTYYADSVKGRFTISRDNAKNTVYLQMNSLKPEDTAVFYCNAIVTDSDYDLGNDYWGQGTQVTVSS |
| – | – | – | 3.4 nM | – | – | – | – | – | – | Reference Fab (Fab, V domains shown) VH: QVQLQESGPGLVRPSQTLSLTCTVSGYSITSDHAWSWVRQPPGRGLEWIGYISYSGITTYNPSLKSRVTMLRDTSKNQFSLRLSSVTAADTAVYYCARSLARTTAMDYWGQGSLVTVSS VL: DIQMTQSPSSLSASVGDRVTITCRASQDISSYLNWYQQKPGKAPKLLIYYTSRLHSGVPSRFSGSGSGTDFTFTISSLQPEDIATYYCQQGNTLPYTFGQGTKVEIKR |
| 0.907 | 0.911 | 1.01 | – | – | – | – | – | – | – | IL6RPMP108C9 (VHH) VHH: EVQLVESGGGLVQAGGSLRLSCAASGRTYAMAWFRQAPGKEREFVAAISIVTDYADSVKGRFNISRDNRENTVYLQMNSLKPEDTAVYYCAANTYYSGAYFPRGHEWYEYWGQGTQVTVSS |
